Reference: publication PMC10491584, “Structural convergence endows nuclear transport receptor Kap114p with a transcriptional repressor function toward TATA-binding protein” (Nature Communications, 2023)

T1: Kap114p wild type (S. cerevisiae, UniProt P53067 1-1004)
T1 construct: Kap114p (karyopherin-β), S. cerevisiae, full length, amplified from total genomic DNA; GST tag followed by a PreScission site (modified pGEX6p1); PreScission protease added during dialysis; also called Kap114p WT; GST-Kap114p (plasmid pGEX-6P-1-Kap114); source: E. coli Rosetta, purified (GST resin, MonoQ, Superdex 200)
T1 sequence (looked up): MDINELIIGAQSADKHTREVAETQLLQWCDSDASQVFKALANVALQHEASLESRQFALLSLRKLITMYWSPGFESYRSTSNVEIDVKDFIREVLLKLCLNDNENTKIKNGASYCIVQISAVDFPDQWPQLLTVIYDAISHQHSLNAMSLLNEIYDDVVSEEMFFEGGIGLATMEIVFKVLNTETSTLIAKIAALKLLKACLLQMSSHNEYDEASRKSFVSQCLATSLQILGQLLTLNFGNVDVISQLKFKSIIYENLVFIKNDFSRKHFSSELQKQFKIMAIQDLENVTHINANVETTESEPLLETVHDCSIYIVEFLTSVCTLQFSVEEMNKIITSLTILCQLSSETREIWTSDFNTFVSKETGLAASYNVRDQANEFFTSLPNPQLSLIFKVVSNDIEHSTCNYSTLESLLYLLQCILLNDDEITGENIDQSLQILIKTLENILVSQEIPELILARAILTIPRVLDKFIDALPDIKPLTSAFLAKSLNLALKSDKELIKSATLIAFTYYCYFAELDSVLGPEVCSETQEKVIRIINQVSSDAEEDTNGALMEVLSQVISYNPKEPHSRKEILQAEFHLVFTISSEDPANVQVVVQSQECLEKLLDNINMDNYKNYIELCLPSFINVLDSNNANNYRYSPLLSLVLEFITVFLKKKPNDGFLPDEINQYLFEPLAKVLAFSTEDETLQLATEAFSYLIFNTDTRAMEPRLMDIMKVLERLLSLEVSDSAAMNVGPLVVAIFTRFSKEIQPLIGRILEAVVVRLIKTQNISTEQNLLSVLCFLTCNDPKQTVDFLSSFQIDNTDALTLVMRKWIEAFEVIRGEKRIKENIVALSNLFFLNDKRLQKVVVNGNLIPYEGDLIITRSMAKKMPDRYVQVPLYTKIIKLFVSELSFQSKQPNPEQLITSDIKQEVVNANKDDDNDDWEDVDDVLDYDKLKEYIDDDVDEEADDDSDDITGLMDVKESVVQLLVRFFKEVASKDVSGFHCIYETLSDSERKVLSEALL

T2: Kap114p (Y370A) (S. cerevisiae, UniProt P53067 1-1004, Y370A)
T2 construct: Kap114p, S. cerevisiae, full length with Y370A; also called GST-Kap114p (Y370A); source: E. coli Rosetta, purified (GST resin, MonoQ, Superdex 200)
T2 sequence (looked up): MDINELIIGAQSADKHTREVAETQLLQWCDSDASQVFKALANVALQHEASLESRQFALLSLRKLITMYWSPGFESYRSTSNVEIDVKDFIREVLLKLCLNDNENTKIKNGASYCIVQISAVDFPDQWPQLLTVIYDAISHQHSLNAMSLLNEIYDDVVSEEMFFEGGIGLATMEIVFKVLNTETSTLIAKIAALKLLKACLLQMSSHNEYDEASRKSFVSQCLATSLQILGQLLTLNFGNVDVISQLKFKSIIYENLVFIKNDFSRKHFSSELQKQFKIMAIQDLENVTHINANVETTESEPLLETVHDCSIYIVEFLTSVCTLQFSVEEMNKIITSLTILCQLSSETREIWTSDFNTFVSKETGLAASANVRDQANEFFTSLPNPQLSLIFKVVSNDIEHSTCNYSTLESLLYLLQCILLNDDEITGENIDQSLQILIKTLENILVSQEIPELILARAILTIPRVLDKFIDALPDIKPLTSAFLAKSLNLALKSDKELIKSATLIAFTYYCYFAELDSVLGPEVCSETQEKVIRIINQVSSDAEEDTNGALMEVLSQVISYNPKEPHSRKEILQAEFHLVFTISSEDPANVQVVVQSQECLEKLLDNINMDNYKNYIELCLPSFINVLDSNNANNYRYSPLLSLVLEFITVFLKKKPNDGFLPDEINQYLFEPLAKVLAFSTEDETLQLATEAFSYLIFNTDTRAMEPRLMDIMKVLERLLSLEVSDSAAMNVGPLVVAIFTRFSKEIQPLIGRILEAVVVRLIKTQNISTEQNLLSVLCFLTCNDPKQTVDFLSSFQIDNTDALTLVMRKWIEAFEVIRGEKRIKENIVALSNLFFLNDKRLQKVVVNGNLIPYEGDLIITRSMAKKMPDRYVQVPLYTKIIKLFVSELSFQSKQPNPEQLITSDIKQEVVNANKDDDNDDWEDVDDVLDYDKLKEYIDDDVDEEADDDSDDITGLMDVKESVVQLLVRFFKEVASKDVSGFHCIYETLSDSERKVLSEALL

B1: yTBP^C (K145A) (domain or fragment, S. cerevisiae, UniProt P13393 61-240, looked up)
chain: SGIVPTLQNIVATVTLGCRLDLKTVALHARNAEYNPKRFAAVIMRIREPKTTALIFASGKMVVTGAKSEDDSKLASRKYARIIQAIGFAAKFTDFKIQNIVGSCDVKFPIRLEGLAFSHGTFSSYEPELFPGLIYRMVKPKIVLLIFVSGKIVLTGAKQREEIYQAFEAIYPVLSEFRKM
notes: also called yTBP(K145A); pET28a-Spt15 (61-240) (K145A); source: E. coli Rosetta, purified (Ni-NTA, HiTrap SP, Superdex 75); not shown: His6, N-terminal, cleaved
B2: yTBP^C (N91A) (domain or fragment, S. cerevisiae, UniProt P13393 61-240, looked up)
chain: SGIVPTLQNIVATVTLGCRLDLKTVALHARAAEYNPKRFAAVIMRIREPKTTALIFASGKMVVTGAKSEDDSKLASRKYARIIQKIGFAAKFTDFKIQNIVGSCDVKFPIRLEGLAFSHGTFSSYEPELFPGLIYRMVKPKIVLLIFVSGKIVLTGAKQREEIYQAFEAIYPVLSEFRKM
notes: also called yTBP(N91A); His-yTBP (61-240) (N91A); source: E. coli Rosetta, purified (Ni-NTA, HiTrap SP, Superdex 75); not shown: His6, N-terminal, cleaved

How the values were obtained:
Kap114p wild type = target: T1, Kap114p wild type; assay: ITC; MicroCal iTC200, 25 °C, 20 mM HEPES pH 7.4, 150 mM NaCl; high concentration: 50 µM wild type or mutant Kap114p in the sample cell, 500 µM wild type or mutant yTBPC in the syringe; triplicate; details: both partners purified
Kap114p (Y370A) = target: T2, Kap114p (Y370A); assay: ITC; MicroCal iTC200, 25 °C, 20 mM HEPES pH 7.4, 150 mM NaCl; low concentration: 25 µM wild type or mutant Kap114p in the sample cell, 250 µM wild type or mutant yTBPC in the syringe; triplicate; details: both partners purified

Row | Binder | Kd (Kap114p wild type) [nM] | Kd (Kap114p (Y370A)) [nM]
1 | B1 | 238 | 
2 | B2 | 28.9 | 938
